Key:
Assay in all cases: SPR, KD relative to WT C2;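 further: biacore SPR at 37 °C, anti-C2 mAbs captured via immobilised goat anti-human IgG, C2 alanine or serine surface mutants as analytes, 1:1 model fitted, double-referenced sensograms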
human C2 E645A = target: T1, human C2 E645A (human, UniProt P06681 21-752)
T1 sequence: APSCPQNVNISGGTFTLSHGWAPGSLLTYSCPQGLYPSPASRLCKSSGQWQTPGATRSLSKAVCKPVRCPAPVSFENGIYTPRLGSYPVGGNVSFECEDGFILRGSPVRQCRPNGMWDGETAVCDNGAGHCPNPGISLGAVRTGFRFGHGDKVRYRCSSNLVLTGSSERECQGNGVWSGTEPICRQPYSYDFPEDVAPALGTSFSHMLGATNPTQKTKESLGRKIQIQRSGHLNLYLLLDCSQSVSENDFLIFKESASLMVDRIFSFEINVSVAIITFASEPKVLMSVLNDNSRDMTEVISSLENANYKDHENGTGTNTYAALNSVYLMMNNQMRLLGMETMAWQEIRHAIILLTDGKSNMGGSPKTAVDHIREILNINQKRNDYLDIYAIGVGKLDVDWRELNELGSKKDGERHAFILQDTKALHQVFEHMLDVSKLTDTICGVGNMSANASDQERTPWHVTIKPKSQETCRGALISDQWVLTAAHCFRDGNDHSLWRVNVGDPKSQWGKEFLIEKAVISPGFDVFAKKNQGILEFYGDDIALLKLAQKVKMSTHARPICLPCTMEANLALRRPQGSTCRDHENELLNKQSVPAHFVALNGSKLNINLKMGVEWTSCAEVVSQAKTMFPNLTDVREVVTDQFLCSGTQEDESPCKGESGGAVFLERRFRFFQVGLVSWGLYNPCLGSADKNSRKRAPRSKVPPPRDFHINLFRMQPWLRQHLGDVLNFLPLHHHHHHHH
Protocol: (§1) Surface plasmon resonance (SPR, Biacore) was used for all binding affinity analyses. In brief, goat anti-human IgG was directly immobilised onto the carboxymethyl dextran surface of CM5 sensorchips to approximately 12,000 RU using standard NHS/EDC chemistry at pH 5. The immobilised antibody surface was pre-conditioned with ten injections of polyclonal human IgG (Privigen 60 s) prepared at 1 μg/mL. Ligands (anti-C2 mAbs) were captured at the beginning of each cycle as described below. An adjacent spot or flow cell in which only Polyclonal IgG was capture was used as a reference surface. The goat anti-human IgG Fc antibody surface was regenerate in 100 mM H3PO4, injected for 45 seconds at the end of each cycle. Experiments were performed at 37° C. and the flow rate of each experiment was kept constant at 30 μL/min.
(§2) Sensogram data was double-referenced against a reference anti-IgG surface (i.e. minus anti-C2 mAb) and blank buffer injections obtained within each experiment. The binding data was fit to 1:1 (kinetic or steady-state) model using local Rmax and null refraction index (RI=0) when appropriate. Buffers and solutions were filtered (0.22 μm) prior to use.

human C2 V455A = target: T2, human C2 V455A (human, UniProt P06681 21-752)
T2 sequence: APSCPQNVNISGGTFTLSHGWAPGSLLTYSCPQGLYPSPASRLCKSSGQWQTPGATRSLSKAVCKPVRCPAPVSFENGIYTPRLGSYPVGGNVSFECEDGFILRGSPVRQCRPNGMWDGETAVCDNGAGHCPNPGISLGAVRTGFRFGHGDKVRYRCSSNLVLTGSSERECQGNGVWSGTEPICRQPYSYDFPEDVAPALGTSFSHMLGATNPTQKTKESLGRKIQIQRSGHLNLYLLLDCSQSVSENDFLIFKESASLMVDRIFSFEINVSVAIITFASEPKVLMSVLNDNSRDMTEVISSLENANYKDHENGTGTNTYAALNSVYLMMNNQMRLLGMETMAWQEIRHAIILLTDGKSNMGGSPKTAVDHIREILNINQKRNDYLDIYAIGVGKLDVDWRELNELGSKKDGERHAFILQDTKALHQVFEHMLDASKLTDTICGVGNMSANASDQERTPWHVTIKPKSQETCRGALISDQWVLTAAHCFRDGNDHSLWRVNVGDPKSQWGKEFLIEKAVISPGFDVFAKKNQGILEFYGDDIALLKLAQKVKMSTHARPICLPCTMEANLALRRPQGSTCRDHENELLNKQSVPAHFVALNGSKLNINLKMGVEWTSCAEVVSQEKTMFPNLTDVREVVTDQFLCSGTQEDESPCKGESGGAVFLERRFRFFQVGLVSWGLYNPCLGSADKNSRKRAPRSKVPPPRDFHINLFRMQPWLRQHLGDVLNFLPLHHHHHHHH
Protocol: as §1, §2

human C2 D269A = target: T3, human C2 D269A (human, UniProt P06681 21-752)
T3 sequence: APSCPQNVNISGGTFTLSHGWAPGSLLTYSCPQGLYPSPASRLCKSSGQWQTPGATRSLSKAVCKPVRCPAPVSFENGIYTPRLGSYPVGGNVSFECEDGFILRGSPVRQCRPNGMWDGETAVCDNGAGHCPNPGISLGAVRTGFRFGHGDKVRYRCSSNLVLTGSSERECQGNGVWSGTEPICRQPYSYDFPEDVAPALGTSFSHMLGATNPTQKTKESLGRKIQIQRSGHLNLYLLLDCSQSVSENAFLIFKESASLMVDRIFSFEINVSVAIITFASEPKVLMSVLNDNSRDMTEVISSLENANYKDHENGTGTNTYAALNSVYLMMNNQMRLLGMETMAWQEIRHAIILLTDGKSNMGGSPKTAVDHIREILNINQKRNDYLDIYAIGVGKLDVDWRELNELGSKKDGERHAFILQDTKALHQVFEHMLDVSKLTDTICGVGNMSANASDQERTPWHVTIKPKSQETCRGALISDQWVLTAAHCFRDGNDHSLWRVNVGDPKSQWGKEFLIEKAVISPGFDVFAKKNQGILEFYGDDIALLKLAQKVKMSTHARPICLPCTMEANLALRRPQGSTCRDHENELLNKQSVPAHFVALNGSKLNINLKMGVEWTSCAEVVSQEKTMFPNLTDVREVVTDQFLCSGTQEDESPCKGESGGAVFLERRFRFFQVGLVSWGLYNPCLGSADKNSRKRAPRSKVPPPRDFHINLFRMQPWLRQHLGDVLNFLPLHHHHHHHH
Protocol: as §1, §2

human C2 G677A = target: T4, human C2 G677A (human, UniProt P06681 21-752)
T4 sequence: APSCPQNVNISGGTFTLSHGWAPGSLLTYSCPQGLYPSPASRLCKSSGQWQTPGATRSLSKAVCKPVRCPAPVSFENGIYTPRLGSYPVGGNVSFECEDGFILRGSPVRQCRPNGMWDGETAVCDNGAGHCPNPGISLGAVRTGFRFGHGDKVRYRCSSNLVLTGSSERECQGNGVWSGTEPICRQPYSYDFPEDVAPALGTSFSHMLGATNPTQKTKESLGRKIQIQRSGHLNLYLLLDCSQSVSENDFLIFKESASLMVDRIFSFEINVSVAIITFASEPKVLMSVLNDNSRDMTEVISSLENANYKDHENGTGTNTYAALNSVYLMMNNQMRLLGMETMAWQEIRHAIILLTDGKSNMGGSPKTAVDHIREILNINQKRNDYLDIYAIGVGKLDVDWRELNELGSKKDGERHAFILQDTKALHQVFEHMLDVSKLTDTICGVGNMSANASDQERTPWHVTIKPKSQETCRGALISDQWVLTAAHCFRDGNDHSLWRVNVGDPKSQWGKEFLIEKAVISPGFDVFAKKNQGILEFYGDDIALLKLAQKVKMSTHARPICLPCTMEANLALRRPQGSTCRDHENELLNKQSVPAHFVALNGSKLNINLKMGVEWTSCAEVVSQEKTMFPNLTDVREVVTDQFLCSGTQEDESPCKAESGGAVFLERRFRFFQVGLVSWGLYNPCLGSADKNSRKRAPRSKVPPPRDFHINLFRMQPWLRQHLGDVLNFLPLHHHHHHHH
Protocol: as §1, §2

Measured: Fold diff

B1: RF16-226 (antibody, human IgG4 S228P, lambda)
heavy: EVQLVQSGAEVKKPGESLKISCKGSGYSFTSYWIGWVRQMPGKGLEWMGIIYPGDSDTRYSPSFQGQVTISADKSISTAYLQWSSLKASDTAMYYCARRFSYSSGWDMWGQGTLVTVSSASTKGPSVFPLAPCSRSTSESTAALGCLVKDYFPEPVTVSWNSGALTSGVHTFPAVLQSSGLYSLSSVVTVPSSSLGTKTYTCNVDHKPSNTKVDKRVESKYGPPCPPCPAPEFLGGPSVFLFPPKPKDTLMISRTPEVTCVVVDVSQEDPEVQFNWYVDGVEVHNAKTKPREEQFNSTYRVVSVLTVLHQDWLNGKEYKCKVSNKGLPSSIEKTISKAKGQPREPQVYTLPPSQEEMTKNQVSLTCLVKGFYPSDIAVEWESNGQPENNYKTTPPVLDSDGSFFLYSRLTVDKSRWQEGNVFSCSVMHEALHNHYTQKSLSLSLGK
light: SYELTQPPSVSVSPGQTARITCSGDALTSKYVAWYQQKSGLAPLLVIYEDTRRPSGIPAKFSGSSSGSVATLTISGAHGDDEADYYCYSTDASGHQRVFGGGTKLTVLSQPKAAPSVTLFPPSSEELQANKATLVCLISDFYPGAVTVAWKADGSPVKAGVETTKPSKQSNNKYAASSYLSLTPEQWKSHRSYSCQVTHEGSTVEKTVAPTECS
notes: pH-dependent anti-C2 antibody from a phage display library; also called WT
1 fold: all assays above
